For this series, the system named is glioblastoma GL261. The conditions noted are these: mouse, in vivo.

For the substance PMLA/LLL/AP2/rhodamine [P/LLL/AP2], the “increase in tumor selectivity with the increase of the dose” value is reported as 2.4 fold.

The record behind these values is patent publication US20200206304A1, “METHODS AND COMPOSITIONS FOR EFFICIENT DELIVERY THROUGH MULTIPLE BIO BARRIERS” (Cedars-Sinai Medical Center, priority 2017, published 2020).
